Data on 4 molecules can be found in patent US20120128678A1 (FORERUNNER PHARMA RESEARCH, published 2012).

The target in experiment [1] is T1, fusion protein of MBP and TMPRSS11E SEA domain (human, UniProt Q9UL52 42-191).
T1 construct: Expressed in E. coli, purified and immobilized for the screening ELISA; also called fusion proteins of MBP and SEA domains
T1 sequence: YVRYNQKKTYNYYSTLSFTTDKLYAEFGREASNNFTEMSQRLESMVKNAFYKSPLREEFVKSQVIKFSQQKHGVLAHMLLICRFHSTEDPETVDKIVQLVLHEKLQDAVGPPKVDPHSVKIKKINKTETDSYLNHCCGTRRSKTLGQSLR
Put plainly: screening ELISA on immobilized MBP-SEA domain fusion protein. The method, then:
This fusion protein was used to immunize Balb/c mice or MRL/lpr mice. Hybridomas were established in the same way as above. New England Biolabs Inc. pMALc2x vectors were used in screening, which was performed by ELISA using fusion proteins of MBP and SEA domains that were expressed in E. coli, then purified, and immobilized on a solid phase. […] The nucleotide sequence of the EA230 heavy chain variable region is shown in SEQ ID NO: 53, and its amino acid sequence is shown in SEQ ID NO: 54. The nucleotide sequence of the EA230 light chain variable region is shown in SEQ ID NO: 55, and its amino acid sequence is shown in SEQ ID NO: 56.
(ELISA stands for enzyme-linked immunosorbent assay.)

Experiment [2] deals with T2, human TMPRSS11E, endogenous, on cancer cell lines and in clinical cancer tissues (human, UniProt Q9UL52 1-423).
T2 construct: Endogenous protein of h2009, h2087, ME-180 and colo201 cells and of lung, uterine cervix and esophagus cancer tissue sections; also called DESC1
T2 sequence: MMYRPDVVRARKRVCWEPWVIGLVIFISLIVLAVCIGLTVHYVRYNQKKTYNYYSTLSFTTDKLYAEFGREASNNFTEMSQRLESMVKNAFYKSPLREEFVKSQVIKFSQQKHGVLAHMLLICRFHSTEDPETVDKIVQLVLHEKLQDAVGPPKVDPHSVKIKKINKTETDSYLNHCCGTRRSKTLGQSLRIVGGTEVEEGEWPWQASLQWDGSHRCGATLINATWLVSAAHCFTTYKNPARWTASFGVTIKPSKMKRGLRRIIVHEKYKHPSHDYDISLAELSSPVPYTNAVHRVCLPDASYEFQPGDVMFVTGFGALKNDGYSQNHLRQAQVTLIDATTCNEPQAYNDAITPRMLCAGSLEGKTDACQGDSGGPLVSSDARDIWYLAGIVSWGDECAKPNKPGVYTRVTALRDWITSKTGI
Put plainly: immunoblot of lysates of cancer cell lines (h2009, ME-180), 0.5 ug/mL EA230 (FIG. 7). The method, then: (§1) Cell lysates of Ba/F3, TMPRSS11E-expressing Ba/F3 (BaF/TMPRSS11E), a TMPRSS11E-negative cancer cell line VMRC-LCD, and TMPRSS11E-positive cancer cell lines h2009 and ME-180 were prepared. 50 μL of NP-40 Lysis Buffer (0.5% (v/v) Nonidet P40, 20 mM Tris-HCl (pH 7.5), 150 mM NaCl, 5 mM EDTA) was added to 1×10⁶ cells and left at 4° C. for 15 minutes. Then, after centrifugation (14,000 rpm, 15 min), the supernatant was used as lysates. The lysates corresponding to 2×10⁵ cells were separated by SDS-PAGE and then transferred to Immobilon-P (Millipore Corp.) using Trans-Blot SD Semi-Dry Electrophoretic Transfer Cell (Bio-Rad Laboratories, Inc.). The membrane was gently washed with TBS-T (0.05% Tween 20, TBS) and then shaken for 1 hour in TBS-T containing 5% skim milk. After shaking for approximately 10 minutes in TBS-T, 0.5 μg/mL EA230 antibodies diluted with TBS-T containing 1% skim milk were added to the membrane, which was then shaken for 1 hour. […] Since the presumed molecular weight of TMPRSS11E is 47.7 kDa, it seemed that TMPRSS11E that underwent sugar chain modification was probably detected. This means that TMPRSS11E can be detected specifically by immunoblot using EA230.

Experiment [3] concerns the target T3, human TMPRSS11E, full-length, forced expression on cells (DG44, Ba/F3, SK-Hep-1) (human, UniProt Q9UL52 1-423).
T3 construct: also called DESC1; BaF/TMPRSS11E; not shown: C-terminal tag added through the antisense primer
T3 sequence: T2 sequence
Put plainly: immunoblot of BaF/TMPRSS11E cell lysate, 0.5 ug/mL EA230 (FIG. 7). The method, then:
as §1
(A western blot detects proteins with antibodies after separation by electrophoresis.)

Experiment [4] addresses T2, human TMPRSS11E, endogenous, on cancer …. Put plainly: flow cytometry on cancer cell lines h2009, h2087, ME-180, colo201 (FIG. 3). The method, then: (§2) The TMPRSS11E-constantly expressing cells thus constructed were evaluated for binding to the parental strain thereof by flow cytometry. The anti-TMPRSS11E antibody diluted to an appropriate concentration was added to cells corresponding to 5×10⁵ and reacted for 1 hour on ice. The cells were washed by centrifugation. Then, FITC-labeled anti-human IgG antibodies were added thereto and reacted for 1 hour on ice. The cells were washed by centrifugation and then suspended in a medium containing 2 μg/mL propidium iodide, and the suspension was applied to FACS Calibur (Becton, Dickinson and Company). […] The chimeric antibodies and low-fucose chimeric antibodies had equivalent avidity. Next, avidity to various cancer cell lines was evaluated by flow cytometry.
On the technique in general: A flow cytometer gives signals particle by particle.

The target in experiment [5] is T3, human TMPRSS11E, full-length, forced …. Put plainly: flow cytometry on TMPRSS11E-expressing Ba/F3 cells, FITC anti-human IgG detection (FIG. 2). The method, then:
as §2

The target is the same in experiment [6]. Put plainly: flow cytometry on TMPRSS11E-expressing SK-Hep-1 cells (FIG. 9).

B1: EA230 (mouse hybridoma antibody) (antibody, V domains shown)
VH: EVKLEESGGALVQPGGSMKLSCVASGFTVSNYWMSWVRQSPEKGLEWVAEVRLKSNNYVTHYAESVKGRFTISRDDSKSSVYLQMNNLRPEDTGIYYCTPFAYWGQGTLVTVSA
VL: QIVLTQSPAILSASPGEKVTLTCSANSSVSSSYLYWHQQKPGSSPKLWIYRTSKLASGVPARFSGSGSGTSYSLTISSMEAEDAASYFCHQWDTYPPTFGGGTKLEIK
Take B1: the binding result in experiment [1], in experiment [2] and in experiment [3] was “binds” in each case.

B2: chi.TM191 (FTKO), low-fucose anti-TMPRSS11E mouse-human chimeric antibody (antibody, human IgG1, kappa, V domains shown)
VH: EVKLVESGGGLVKPGGSLKLSCAASGFTFSDYGMAWVRQAPGKGPEWVAFISNLAYSSYYADTVTGRFTISRENAKNTLYLEMSSLRSEDSAMYYCARRIFDYDGDGPYEDYWGQGTSVTVSS
VL: QIVLTQSPAIMSASPGEKVTLTCSATSSVSSRYVHWYQQKSGASPKLWIYGTSNLASGVPARFSGSGSGTSYSLTISSVEAEDAATYYCQQYHNDPPTFGAGTKLELKR
modifications: sugar chain free from alpha-1,6 core-fucose (produced in CHO_FTKO cells)
notes: also called low-fucose chimeric TM191
For the molecule B2, the binding result in experiment [4] and in experiment [5] was “binds” each time.

B3: TM191 (mouse hybridoma antibody) (antibody, V domains shown)
VH: B2 VH
VL: QIVLTQSPAIMSASPGEKVTLTCSATSSVSSRYVHWYQQKSGASPKLWIYGTSNLASGVPARFSGSGSGTSYSLTISSVEAEDAATYYCQQYHNDPPTFGAGTKLELK
notes: Mouse IgG1 kappa
With B3, in experiment [6], the binding result is given as “binds”.

B4: chi.TM191 (DG), anti-TMPRSS11E mouse-human chimeric antibody (antibody, V domains shown)
VH: B2 VH
VL: B2 VL
notes: Human IgG1/kappa constant regions, produced in DG44 CHO cells; also called chimeric TM191
In the case of B4, the binding result in experiment [4] and in experiment [5] was “binds” throughout.
